# Data taken from patent US20170298096A1 (CANIMGUIDE THERAPEUTICS, published 2017).
# No end group written: not given here.
# T1: His-tagged P3028 (human, also: His-tag, terminus and sequence not given here)
# T1 construct: in solution at 0.5 ug/mL over the peptide cards; found with anti-His-tag antibody and rabbit anti-mouse peroxidase (rampo); also called PGE73; not shown: His-tag
# T1 peptide: VFDEFKPLVEEPQNLIK
# Molecular target: T1, His-tagged P3028
# Assay: PEPSCAN chip ELISA, His-P3028 in solution;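 also: score is the raw OD at 405 nm from peroxidase colour with ABTS, imaged by CCD camera before and after staining, with wells showing air bubbles set to zero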
row,Binder,RAMPO Score
1,KKLDTFFVKLSLTTER [SEQ ID NO 373],494 rampo score
2,KKLDTFFVKLSLFVER [SEQ ID NO 385],380 rampo score
3,KKLDTFFVKLSLFPER [SEQ ID NO 383],551 rampo score
4,KKLDTFFVKLSLFLER [SEQ ID NO 380],360 rampo score
5,KKLDTFWVKLSLFTER [SEQ ID NO 425],380 rampo score
6,KKLFTFFVKLSLFTER [SEQ ID NO 426],380 rampo score
7,KKLDTFFVKLSLFWER [SEQ ID NO 386],374 rampo score
8,KKLDTFFVKLYLFTER [SEQ ID NO 415],402 rampo score
9,KKLDTFFVKLSLFIER [SEQ ID NO 379],375 rampo score
10,KKLDTFFVKLSGFTER [SEQ ID NO 431],370 rampo score
11,KKLDTFFVKLSLFTDR [SEQ ID NO 387],404 rampo score
12,KKLDTFAVKLSLFTER [SEQ ID NO 404],426 rampo score
13,KGLDTFFVKLSLFTER [SEQ ID NO 412],405 rampo score
14,KKLDTFEVKLSLFTER [SEQ ID NO 424],381 rampo score
15,KKLDTFFVKLSLVTER [SEQ ID NO 374],446 rampo score
16,KKLDTFFVKLVLFTER [SEQ ID NO 419],392 rampo score
17,KKLDTSFVKLSLFTER [SEQ ID NO 401],432 rampo score
18,KKLDTFFVKLSLFFER [SEQ ID NO 376],348 rampo score
19,KFLDTFFVKLSLFTER [SEQ ID NO 421],390 rampo score
20,KKLDTFFVKLSLFTEF [SEQ ID NO 388],297 rampo score
21,KKLDTFFVKLSFFTER [SEQ ID NO 422],389 rampo score
22,KKLDTFCVKLSLFTER [SEQ ID NO 409],411 rampo score
23,KKLDTFRVKLSLFTER [SEQ ID NO 432],369 rampo score
24,KRLDTFFVKLSLFTER [SEQ ID NO 407],417 rampo score
25,KMLDTFFVKLSLFTER [SEQ ID NO 417],400 rampo score

row,Binder,RAMPO Score
1,KKLPTFFVKLSLFTER [SEQ ID NO 435],364 rampo score
2,KKLTTFFVKLSLFTER [SEQ ID NO 413],405 rampo score
3,KPLDTFFVKLSLFTER [SEQ ID NO 405],425 rampo score
4,KKLDTFFVKLSLFNER [SEQ ID NO 382],599 rampo score
5,KKLDTFFVKLSLFHER [SEQ ID NO 378],463 rampo score
6,KKLDTFFVKLSLFTET [SEQ ID NO 392],292 rampo score
7,KKLMTFFVKLSLFTER [SEQ ID NO 423],384 rampo score
8,KKLDTYFVKLSLFTER [SEQ ID NO 434],364 rampo score
9,KKLDTFFVKLSLFTEY [SEQ ID NO 393],311 rampo score
10,KKLDHFFVKLSLFTER [SEQ ID NO 420],391 rampo score
11,KKLDTFHVKLSLFTER [SEQ ID NO 433],364 rampo score
12,KKLDTFIVKLSLFTER [SEQ ID NO 397],446 rampo score
13,KKLDTFFVKLSLFMER [SEQ ID NO 381],501 rampo score
14,KKLDTFFVKLSLFTEN [SEQ ID NO 390],311 rampo score
15,KKLDTLFVKLSLFTER [SEQ ID NO 411],408 rampo score
16,KKLDTFFVKLSLFSER [SEQ ID NO 384],369 rampo score
17,KKLDTFFIKLSLFTER [SEQ ID NO 416],401 rampo score
18,KKLDTFFVKLSLFGER [SEQ ID NO 377],343 rampo score
19,KKLDTFFVKLSLFTEK [SEQ ID NO 389],291 rampo score
20,KKLDVFFVKLSLFTER [SEQ ID NO 429],374 rampo score
21,KHLDTFFVKLSLFTER [SEQ ID NO 418],394 rampo score
22,KKLDTQFVKLSLFTER [SEQ ID NO 410],410 rampo score
23,KKLDTFFVKLSLWTER [SEQ ID NO 375],430 rampo score
24,KNLDTFFVKLSLFTER [SEQ ID NO 402],432 rampo score

# Other lines, results leading:
row,RAMPO Score,Binder
1,341 rampo score,KKLDTFFVKLCLFTER [SEQ ID NO 457]
2,345 rampo score,KKLQTFFVKLSLFTER [SEQ ID NO 448]
3,344 rampo score,KKLCTFFVKLSLFTER [SEQ ID NO 449]
4,356 rampo score,KKLDTFPVKLSLFTER [SEQ ID NO 437]
5,344 rampo score,SKLDTFFVKLSLFTER [SEQ ID NO 453]
6,351 rampo score,KKLDTFFVKLSLFTPR [SEQ ID NO 439]
7,355 rampo score,KKLDTFFVKLSKFTER [SEQ ID NO 438]
8,361 rampo score,KKPDTFFVKLSLFTER [SEQ ID NO 436]
9,344 rampo score,KKLDTFFVKLSLFTQR [SEQ ID NO 450]
10,349 rampo score,KELDTFFVKLSLFTER [SEQ ID NO 441]
11,341 rampo score,KKWDTFFVKLSLFTER [SEQ ID NO 458]
12,342 rampo score,KKLDTFFVKLSCFTER [SEQ ID NO 455]
13,347 rampo score,KKLDTGFVKLSLFTER [SEQ ID NO 446]
14,341 rampo score,KKLDEFFVKLSLFTER [SEQ ID NO 456]
15,344 rampo score,KKYDTFFVKLSLFTER [SEQ ID NO 452]
16,350 rampo score,KQLDTFFVKLSLFTER [SEQ ID NO 440]
17,347 rampo score,KKLDTFFVTLSLFTER [SEQ ID NO 445]
18,344 rampo score,KKLSTFFVKLSLFTER [SEQ ID NO 451]
19,348 rampo score,KKLDTFNVKLSLFTER [SEQ ID NO 443]
20,348 rampo score,KKLDTWFVKLSLFTER [SEQ ID NO 444]
21,343 rampo score,KLLDTFFVKLSLFTER [SEQ ID NO 454]
22,346 rampo score,KKLDAFFVKLSLFTER [SEQ ID NO 447]
